Laboratory results taken from patent US20230114801A1 (SYSTIMMUNE, published 2023).

B1: SI-75P3 (other)
chain 1: EIVLTQSPSTLSVSPGERATFSCRASQSIGTNIHWYQQKPGKPPRLLIKYASESISGIPDRFSGSGSGTEFTLTISSVQSEDFAVYYCQQNNNWPTTFGPGTKLTVLGGGGSGGGGSGGGGSGGGGSQVQLQQSGPGLVKPSETLSITCTVSGFSLTNYGVHWIRQAPGKGLEWLGVIWSGGNTDYNTPFTSRFTITKDNSKNQVYFKLRSVRADDTAIYYCARALTYYDYEFAYWGQGTLVTVSSGGGGSGGGGSEVQLVESGGGLVQPGGSLRLSCAASGFTISTNAMSWVRQAPGKGLEWIGVITGRDITYYASWAKGRFTISRDNSKNTLYLQMNSLRAEDTAVYYCARDGGSSAITSNNIWGQGTLVTVSSASTKGPSVFPLAPSSKSTSGGTAALGCLVKDYFPEPVTVSWNSGALTSGVHTFPAVLQSSGLYSLSSVVTVPSSSLGTQTYICNVNHKPSNTKVDKRVEPKSCDKTHTCPPCPAPEAAGGPSVFLFPPKPKDTLMISRTPEVTCVVVDVSHEDPEVKFNWYVDGVEVHNAKTKPREEQYNSTYRVVSVLTVLHQDWLNGKEYKCAVSNKALPAPIEKTISKAKGQPREPQVYTLPPSRDELTKNQVSLSCAVKGFYPSDIAVEWESNGQPENNYKTTPPVLDSDGSFFLVSKLTVDKSRWQQGNVFSCSVMHEALHNHYTQKSLSLSPGGGGGSGGGGSDVVMTQSPSSVSASVGDRVTITCQASQNIRTYLSWYQQKPGKAPKLLIYAAANLASGVPSRFSGSGSGTDFTLTISDLEPGDAATYYCQSTYLGTDYVGGAFGGGTKLTVLGGGGSGGGGSGGGGSGGGGSEVQLVESGGGLVQPGGSLRLSCTASGFTISSYHMQWVRQAPGKGLEYIGTISSGGNVYYASSARGRFTISRPSSKNTVDLQMNSLRAEDTAVYYCARDSGYSDPMWGQGTLVTVSS
chain 2: QSALTQPASVSGSPGQSITISCTGTSSDVGGYNFVSWYQQHPGKAPKLMIYDVSDRPSGVSDRFSGSKSGNTASLIISGLQADDEADYYCSSYGSSSTHVIFGGGTKVTVLGGGGSGGGGSGGGGSGGGGSQVQLQESGGGLVKPGGSLSLSCAASGFTFSSYWMSWVRQAPGKGLEWVANINRDGSASYYVDSVKGRFTISRDDAKNSLYLQMNSLRAEDTAVYYCARDRGVGYFDLWGRGTLVTVSSGGGGSGGGGSDVVMTQSPSTLSASVGDRVTINCQASESISSWLAWYQQKPGKAPKLLIYEASKLASGVPSRFSGSGSGTEFTLTISSLQPDDFATYYCQGYFYFISRTYVNSFGGGTKVEIKRTVAAPSVFIFPPSDEQLKSGTASVVCLLNNFYPREAKVQWKVDNALQSGNSQESVTEQDSKDSTYSLSSTLTLSKADYEKHKVYACEVTHQGLSSPVTKSFNRGECGGDKTHTCPPCPAPEAAGGPSVFLFPPKPKDTLMISRTPEVTCVVVDVSHEDPEVKFNWYVDGVEVHNAKTKPREEQYNSTYRVVSVLTVLHQDWLNGKEYKCAVSNKALPAPIEKTISKAKGQPREPQVYTLPPSRDELTKNQVSLWCLVKGFYPSDIAVEWESNGQPENNYKTTPPVLDSDGSFFLYSKLTVDKSRWQQGNVFSCSVMHEALHNRFTQKSLSLSPGGGGGSGGGGSDIQMTQSPSTLSASVGDRVTITCQASQSISSHLNWYQQKPGKAPKLLIYKASTLASGVPSRFSGSGSGTEFTLTISSLQPDDFATYYCQQGYSWGNVDNVFGGGTKVTVLGGGGSGGGGSGGGGSGGGGSEVQLLESGGGLVQPGGSLSLSCAASGFSFSSGYDMCWVRQAPGKGLEWIACIAAGSAGITYDANWAKGRFTISRDNSKNTLYLQMNSLRAEDTAVYYCARSAFSFDYAMDLWGQGTLVTVSS
notes: penta-miniGNC; D1 αEGFR, D2 αHER3, D3 αCD3 (Fab), D4 α4-1BB, D5 αPD-L1
B2: SI-75E2 (other)
chain 1: EIVLTQSPSTLSVSPGERATFSCRASQSIGTNIHWYQQKPGKPPRLLIKYASESISGIPDRFSGSGSGTEFTLTISSVQSEDFAVYYCQQNNNWPTTFGPGTKLTVLGGGGSGGGGSGGGGSGGGGSQVQLQQSGPGLVKPSETLSITCTVSGFSLTNYGVHWIRQAPGKGLEWLGVIWSGGNTDYNTPFTSRFTITKDNSKNQVYFKLRSVRADDTAIYYCARALTYYDYEFAYWGQGTLVTVSSGGGGSGGGGSEVQLVESGGGLVQPGGSLRLSCAASGFTISTNAMSWVRQAPGKGLEWIGVITGRDITYYASWAKGRFTISRDNSKNTLYLQMNSLRAEDTAVYYCARDGGSSAITSNNIWGQGTLVTVSSASTKGPSVFPLAPSSKSTSGGTAALGCLVKDYFPEPVTVSWNSGALTSGVHTFPAVLQSSGLYSLSSVVTVPSSSLGTQTYICNVNHKPSNTKVDKRVEPKSCDKTHTCPPCPAPEAAGGPSVFLFPPKPKDTLMISRTPEVTCVVVDVSHEDPEVKFNWYVDGVEVHNAKTKPREEQYNSTYRVVSVLTVLHQDWLNGKEYKCAVSNKALPAPIEKTISKAKGQPREPQVYTLPPSRDELTKNQVSLSCAVKGFYPSDIAVEWESNGQPENNYKTTPPVLDSDGSFFLVSKLTVDKSRWQQGNVFSCSVMHEALHNHYTQKSLSLSPG
chain 2: B1 chain 2
notes: tetra-miniGNC; D1 αEGFR, D2 αHER3, D3 αCD3 (Fab), D5 αPD-L1; also called tetra-miniGNC (SI-75E2)
B3: SI-75P6 (other)
chain 1: DVVMTQSPSTLSASVGDRVTINCQASESISSWLAWYQQKPGKAPKLLIYEASKLASGVPSRFSGSGSGTEFTLTISSLQPDDFATYYCQGYFYFISRTYVNSFGGGTKVEIKGGGGSGGGGSGGGGSGGGGSEVQLVESGGGLVQPGGSLRLSCAASGFTISTNAMSWVRQAPGKGLEWIGVITGRDITYYASWAKGRFTISRDNSKNTLYLQMNSLRAEDTAVYYCARDGGSSAITSNNIWGQGTLVTVSSGGGGSGGGGSQVQLQQSGPGLVKPSETLSITCTVSGFSLTNYGVHWIRQAPGKGLEWLGVIWSGGNTDYNTPFTSRFTITKDNSKNQVYFKLRSVRADDTAIYYCARALTYYDYEFAYWGQGTLVTVSSASTKGPSVFPLAPSSKSTSGGTAALGCLVKDYFPEPVTVSWNSGALTSGVHTFPAVLQSSGLYSLSSVVTVPSSSLGTQTYICNVNHKPSNTKVDKRVEPKSCDKTHTCPPCPAPEAAGGPSVFLFPPKPKDTLMISRTPEVTCVVVDVSHEDPEVKFNWYVDGVEVHNAKTKPREEQYNSTYRVVSVLTVLHQDWLNGKEYKCAVSNKALPAPIEKTISKAKGQPREPQVYTLPPSRDELTKNQVSLSCAVKGFYPSDIAVEWESNGQPENNYKTTPPVLDSDGSFFLVSKLTVDKSRWQQGNVFSCSVMHEALHNHYTQKSLSLSPGGGGGSGGGGSDVVMTQSPSSVSASVGDRVTITCQASQNIRTYLSWYQQKPGKAPKLLIYAAANLASGVPSRFSGSGSGTDFTLTISDLEPGDAATYYCQSTYLGTDYVGGAFGGGTKLTVLGGGGSGGGGSGGGGSGGGGSEVQLVESGGGLVQPGGSLRLSCTASGFTISSYHMQWVRQAPGKGLEYIGTISSGGNVYYASSARGRFTISRPSSKNTVDLQMNSLRAEDTAVYYCARDSGYSDPMWGQGTLVTVSS
chain 2: QSALTQPASVSGSPGQSITISCTGTSSDVGGYNFVSWYQQHPGKAPKLMIYDVSDRPSGVSDRFSGSKSGNTASLIISGLQADDEADYYCSSYGSSSTHVIFGGGTKVTVLGGGGSGGGGSGGGGSGGGGSQVQLQESGGGLVKPGGSLSLSCAASGFTFSSYWMSWVRQAPGKGLEWVANINRDGSASYYVDSVKGRFTISRDDAKNSLYLQMNSLRAEDTAVYYCARDRGVGYFDLWGRGTLVTVSSGGGGSGGGGSEIVLTQSPSTLSVSPGERATFSCRASQSIGTNIHWYQQKPGKPPRLLIKYASESISGIPDRFSGSGSGTEFTLTISSVQSEDFAVYYCQQNNNWPTTFGPGTKLTVLRTVAAPSVFIFPPSDEQLKSGTASVVCLLNNFYPREAKVQWKVDNALQSGNSQESVTEQDSKDSTYSLSSTLTLSKADYEKHKVYACEVTHQGLSSPVTKSFNRGECGGDKTHTCPPCPAPEAAGGPSVFLFPPKPKDTLMISRTPEVTCVVVDVSHEDPEVKFNWYVDGVEVHNAKTKPREEQYNSTYRVVSVLTVLHQDWLNGKEYKCAVSNKALPAPIEKTISKAKGQPREPQVYTLPPSRDELTKNQVSLWCLVKGFYPSDIAVEWESNGQPENNYKTTPPVLDSDGSFFLYSKLTVDKSRWQQGNVFSCSVMHEALHNRFTQKSLSLSPGGGGGSGGGGSDIQMTQSPSTLSASVGDRVTITCQASQSISSHLNWYQQKPGKAPKLLIYKASTLASGVPSRFSGSGSGTEFTLTISSLQPDDFATYYCQQGYSWGNVDNVFGGGTKVTVLGGGGSGGGGSGGGGSGGGGSEVQLLESGGGLVQPGGSLSLSCAASGFSFSSGYDMCWVRQAPGKGLEWIACIAAGSAGITYDANWAKGRFTISRDNSKNTLYLQMNSLRAEDTAVYYCARSAFSFDYAMDLWGQGTLVTVSS
notes: penta-miniGNC, IgG1 knobs-into-holes heterodimer; D1 αCD3, D2 αHER3, D3 αEGFR (Fab), D4 α4-1BB, D5 αPD-L1; also called penta-miniGNC (SI-75P6)

How the values were obtained:
Assay in all cases: BLI (Octet), binder on AHC sensor, 100 nM human antigen, 1:1 fit
human CD3 = molecular target: T1, human CD3 (human, UniProt P07766 23-126; P04234 22-105)
T1 construct: also called His-tagged human CD3; human CD3 (Acro CDD-H52W1)

human EGFR = molecular target: T2, human EGFR (human, UniProt P00533 25-645, limits assumed)
T2 construct: Soluble antigen in Octet; construct not described

human PD-L1 = molecular target: T3, human PD-L1 (human, UniProt Q9NZQ7 19-238)
T3 construct: Soluble antigen in Octet; bought; also called human PD-L1 (Acro PD1-H5229)

human 4-1BB = molecular target: T4, human 4-1BB (human, UniProt Q07011 24-186, limits assumed)
T4 construct: Soluble antigen in Octet; construct not described

human HER3 = molecular target: T5, human HER3 (human, UniProt P21860 20-643)
T5 construct: Soluble antigen in Octet; bought; also called human HER3 (Acro ER3-H5223)

Binder | Kd (human CD3) [nM] | Kd (human EGFR) [nM] | Kd (human PD-L1) [nM] | Kd (human 4-1BB) [nM] | Kd (human HER3) [nM]
B1 | 17.4 | 8.91 | 1 | 7.51 | –
B2 | 22.1 | 8.24 | 1.36 | – | 114
B3 | 36.2 | 5.56 | 1.45 | 37.3 | –
